Reference: patent publication US20110274692A1 (published 2011)

B1: Ab079 (antibody, V domains shown)
VH: QMQLVQSGAEMKKPGASVKVSCKASGYSFSDYGITWVRQAPGQGPEWMGWISGYNGNTNYAQKFQDRVTMTTDTSTSTAYMELRSLKSDDTAVYFCARARGVWMFDNWGQGTLVTVSS
VL: AIRMTQSPSTLSASVGDRVTITCRASQSISTWLAWYQQKPGKAPKLLIYTTSTLESGVPSRFSGSRSGTEFTLTISSLQPDDFATYYCQQYNSYPLTFGGGTKVEIK
B2: Ab053 (antibody, V domains shown)
VH: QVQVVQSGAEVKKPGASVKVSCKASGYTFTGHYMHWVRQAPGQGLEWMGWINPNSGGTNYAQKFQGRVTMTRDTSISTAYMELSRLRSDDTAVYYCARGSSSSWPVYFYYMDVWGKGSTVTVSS
VL: QSALTQPRSVSESPGKTVTISCTGSGGSIGSNYVQWYQQRPGSAPTTVIFEDNRRPSGVPDRFSGSIHSSSNSASLTISGLKTEDEADYYCQSYVGTIVVFGGGTKVTVL
B3: Ab062 (antibody, V domains shown)
VH: QVQLQQWGAGLLKPSETLSLTCAVYGGSFSGYYWSWIRQPPGKGLEWIGEINHSGSTNYNPSLKSRVTISVDTSKNQFSLKLSSVTAADTAVYYCARGPSGWYIREFDYWGQGTLVTVSS
VL: QSVLTQPPSVSGAPGQRVTISCTGSSSNIGAGYDVHWYQQLPGTAPKLLIYGNSNRPSGVPDRFSGSKSGTSASLAITGLQAEDEADYYCQSYDSSLSGSGVFGGGTKVTVL
B4: Ab001 (antibody, V domains shown)
VH: EVQLLESGGGLVQPGGSLRLSCAASGFTFSSYEMNWVRQAPGKGLEWVSSISSSSSYIYYADSVKGRFTISRDNSKNTLYLQMNSLRAEDTAVYYCARVRWYKDSDAFDIWGQGTLVTVSS
VL: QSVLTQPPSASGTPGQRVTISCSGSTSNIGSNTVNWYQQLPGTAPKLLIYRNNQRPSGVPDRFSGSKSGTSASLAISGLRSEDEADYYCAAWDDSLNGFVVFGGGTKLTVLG
B5: Ab083 (antibody, V domains shown)
VH: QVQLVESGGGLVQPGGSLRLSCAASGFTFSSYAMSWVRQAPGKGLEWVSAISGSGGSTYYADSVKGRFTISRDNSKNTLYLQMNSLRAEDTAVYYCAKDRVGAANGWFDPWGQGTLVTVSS
VL: AIQLTQSPSSLSASVGDRVTISCRASQSITSYLNWYQQKPGKAPNLLIYAASSLQSGVPSRFSGSGSGTDFTLTIAGLQPEDFATYYCQQFDSYPFTFGGGTKLEIK
B6: Ab037 (antibody, V domains shown)
VH: EVQLLESGGGLVQPGGSLRLSCAASGFTFSSYEMNWVRQAPGKGLEWVSSISSSSRYADVANSVVGRFTISRDNSKNTLYLQMNSLRAEDTAVYYCARGEWLDHFDYWGQGTLVTVSS
VL: QSVLTQPPSASGTPGQRVTISCSGSSSNIGNSAVNWYQQLPGTAPKLLIYDNNKRPSGVPDRFSGSKSGTSASLAISGLRSEDEADYYCQVWDSGTAVFGGGTKLTVLG
B7: Ab080 (antibody, V domains shown)
VH: EVQLVESGGGVVQPGGSLRLSCAASGFTFDDYAMHWVRQAPGKGLEWVSLISWDGGSTYYADSVKGRFTISRDNSKNSLYLQMNSLRAEDTALYYCAKARGVVIIDYWGQGTLVTVSS
VL: EIVLTQSPGTLSLSPGERATLSCRASQSLSSSFLAWYQQKPGQAPRLLIYGAGSRATGVPDRFSGSGYGTDFSLTISRLELEDFAVYYCQQYDRSQITFGQGTRLEIK

These binders were tested against T1, INS/INSR complex (human, UniProt P06213 28-1382; P01308 25-110, limits assumed) (assay: ratio of the value for R to the value for R-L, Table 2).
T1 construct: cells carrying INSR pre-exposed to human insulin (150 nM for CHO-K1 hINSR cells); also called R-L; INSR with insulin
For B1, the “KD ratios (R against R-L)” value was 19.4.
B2 was tested, and the “KD ratios (R against R-L)” value was 1.5.
B3 was tested, and the “KD ratios (R against R-L)” value was 1.1.
For B4, the “KD ratios (R against R-L)” value was 103.
B5 was tested, and the “KD ratios (R against R-L)” value was 20.2.
For B6, the “KD ratios (R against R-L)” value was 1.4.
For B7, the “KD ratios (R against R-L)” value was 17.6.
